“And” between values parts separate entries of the source, which are not always exact repeats. Equal values may be shown once.
Assays:
Assay in all cases: MTT cytotoxicity assay, 48 h, alone and in combination (IC50 and Combination Index)
Assay type in all cases: cell-based
HT-29 cell line = tested on: HT-29 cell line
MDA-MB-231 cell line = tested on: MDA-MB-231 cell line
Protocol: (§1) The cell were kept in contact with the recombinant lectin of SEQ ID NO: 1 and the chemotherapy agent for 48 h and the cytotoxic effect (percentage cytotoxicity) was measured. The cytotoxic effect was determined by well-known colorimetric MTT assay (Mossman, T. 1983 Rapid colorimetric assay for cellular growth and survival: application to proliferation and cytotoxicity assays Journal of Immunological Methods, volume 65, pages 55-63) for assessing cell metabolic activity.
(§2) Based on percentage cytotoxicity data, IC50 values were determined using the software GraphPad Prism version 4.01.
(§3) Combination Index (CI) values were determined for each drug concentration combination. The CI values were calculated based on the IC50 values using the formula as given in below.
A study was performed to determine the effect of the concentration of the recombinant lectin represented by SEQ ID NO: 1 on the IC50 of Paclitaxel for cytotoxicity in MDA-MB-231 cells. Conversely the effect of the concentration of Paclitaxel on the IC50 of the recombinant lectin represented by SEQ ID NO: 1.
Similarly another study was performed for Carboplatin in combination with the recombinant lectin of SEQ ID NO: 1.
In a further study, MDA-MB-231 cells were treated with Paclitaxel (0.001 nM-10 nM) in combination with SEQ ID NO: 1(2.5 μg/mL-80 μg/mL) for 48 h. Similarly another set of cells were treated with Carboplatin (10 μM-1000 μM) in combination with SEQ ID NO: 1 (2.5 μg/mL-80 μg/mL).

T24 cell line = tested on: T24 cell line
Protocol: as §1, §2, §3
A study was performed to determine the effect of the concentration of the recombinant lectin represented by SEQ ID NO: 1 on the IC50 of Cisplatin for cytotoxicity in T24 cells. Conversely the effect of the concentration of Cisplatin on the IC50 of the recombinant lectin represented by SEQ ID NO: 1.
Similarly another study was performed for Gemcitabine in combination with the recombinant lectin of SEQ ID NO: 1.
This was performed using the same techniques as in Example 1-1.
In a further study, T24 cells were treated with Cisplatin (1 μM-500 μM) in combination with SEQ ID NO: 1(2.5 μg/mL-80 μg/mL) for 48 h. Similarly another set of cells were treated with Gemcitabine (1 μM-300 μM) in combination with SEQ ID NO: 1 (2.5 μg/mL-80 μg/mL). Combination Index values were determined for each drug combination and resultant antagonistic, additive or synergistic effect was determined, as described in Example 1-2.

PA-1 cell line = tested on: PA-1 cell line
Protocol: In a further study, PA-1 cells were treated with Cisplatin(0.01 μM-5 μM) in combination with SEQ ID NO: 1(1 μg/mL-20 μg/mL) for 48 h. Similarly another set of cells were treated with Paclitaxel (0.01 nM-5 nM) in combination with SEQ ID NO: 1 (1 μg/mL-20 μg/mL).

PANC-1 cell line = tested on: PANC-1 cell line
Protocol: The cytotoxic effect on each combination was determined by MTT assay.
as §3

KB cell line = tested on: KB cell line
Protocol: A study was performed to determine the effect of the concentration of the recombinant lectin represented by SEQ ID NO: 1 on the IC50 of5-FU for cytotoxicity in KB cells.
Similarly another study was performed for Cisplatin in combination with the recombinant lectin of SEQ ID NO: 1.
Similarly another set of cells were treated with Cisplatin(0.1 μM to 1.5 μM)in combination with SEQ ID NO: 1(5.0 μg/mL-90 μg/mL).

[1] = in combination with Paclitaxel, paired with Paclitaxel conc. of the same table row
[2] = in combination with Cisplatin, paired with Cisplatin conc. of the same table row
[3] = in combination with 5-FU, paired with 5-FU conc. of the same table row

B1: SEQ ID NO: 1: recombinant lectin protein, variant of the S. rolfsii lectin amino acid sequence (reported as Rec-2 in WO 2010/095143) (protein)
chain: TYKITVRVYQTNPDAFFHPVEKTVWKYANGGTWTITDDQHVLTMGGSGTSGTLRFHADNGESFTATFGVHNYKRWCDIVTNLAADETGMVINQQYYSQKNREEARERQLSNYQVKNAKGRNFQIVYTEAEGNDLHANLIIG
IC50 of SEQ ID NO: 1 (HT-29 cell line; 5-FU 0 μM): 25.470 µg/mL
IC50 of SEQ ID NO: 1 (HT-29 cell line; 5-FU 5 μM): 22.990 µg/mL
IC50 of SEQ ID NO: 1 (HT-29 cell line; 5-FU 10 μM): 6.374 µg/mL
IC50 of SEQ ID NO: 1 (HT-29 cell line; 5-FU 50 μM): 1.667 µg/mL
IC50 of SEQ ID NO: 1 (HT-29 cell line; 5-FU 100 μM): 1.387 µg/mL
IC50 of SEQ ID NO: 1 (HT-29 cell line; 5-FU 150 μM): 1.216 µg/mL
IC50 of SEQ ID NO: 1 (HT-29 cell line; 5-FU 200 μM): 1.334 µg/mL
IC50 of SEQ ID NO: 1 (HT-29 cell line; Irinotecan 0 μM): 18.320 µg/mL
IC50 of SEQ ID NO: 1 (HT-29 cell line; Irinotecan 0.1 μM): 73.480 µg/mL
IC50 of SEQ ID NO: 1 (HT-29 cell line; Irinotecan 1 μM): 36.280 µg/mL
IC50 of SEQ ID NO: 1 (HT-29 cell line; Irinotecan 5 μM): 23.520 µg/mL
IC50 of SEQ ID NO: 1 (HT-29 cell line; Irinotecan 10 μM): 9.995 µg/mL
IC50 of SEQ ID NO: 1 (HT-29 cell line; Irinotecan 25 μM): 8.258 µg/mL
IC50 of SEQ ID NO: 1 (HT-29 cell line; Irinotecan 50 μM): 1.395 µg/mL
Conc. of SEQ ID NO: 1 showing synergistic effect (HT-29 cell line; in combination with Irinotecan, paired with Irinotecan conc. of the same table row): 40 to 80 µg/mL and 20 µg/mL
IC50 of SEQ ID NO: 1 (MDA-MB-231 cell line; Carboplatin 0 μM): 14.310 µg/mL
IC50 of SEQ ID NO: 1 (MDA-MB-231 cell line; Carboplatin 10 μM): 7.188 µg/mL
IC50 of SEQ ID NO: 1 (MDA-MB-231 cell line; Carboplatin 50 μM): 3.584 µg/mL
IC50 of SEQ ID NO: 1 (MDA-MB-231 cell line; Carboplatin 100 μM): 4.290 µg/mL
IC50 of SEQ ID NO: 1 (MDA-MB-231 cell line; Carboplatin 200 μM): 2.073 µg/mL
IC50 of SEQ ID NO: 1 (MDA-MB-231 cell line; Carboplatin 500 μM): 0.523 µg/mL
IC50 of SEQ ID NO: 1 (MDA-MB-231 cell line; Carboplatin 1000 μM): 0.044 µg/mL
IC50 of SEQ ID NO: 1 (MDA-MB-231 cell line; Paclitaxel 0 nM): 19.800 µg/mL
IC50 of SEQ ID NO: 1 (MDA-MB-231 cell line; Paclitaxel 0.001 nM): 25.370 µg/mL
IC50 of SEQ ID NO: 1 (MDA-MB-231 cell line; Paclitaxel 0.01 nM): 21.220 µg/mL
IC50 of SEQ ID NO: 1 (MDA-MB-231 cell line; Paclitaxel 0.1 nM): 13.700 µg/mL
IC50 of SEQ ID NO: 1 (MDA-MB-231 cell line; Paclitaxel 1 nM): 8.720 µg/mL
IC50 of SEQ ID NO: 1 (MDA-MB-231 cell line; Paclitaxel 5 nM): 5.775 µg/mL
IC50 of SEQ ID NO: 1 (MDA-MB-231 cell line; Paclitaxel 10 nM): 2.248 µg/mL
Conc. of SEQ ID NO: 1 showing synergistic effect (MDA-MB-231 cell line; in combination with Carboplatin, paired with Carboplatin conc. of the same table row): 5 to 80 µg/mL and 2.5 µg/mL
Conc. of SEQ ID NO: 1 showing synergistic effect (MDA-MB-231 cell line; [1]): 20 to 80 µg/mL and 10 µg/mL
IC50 of SEQ ID NO: 1 (T24 cell line; Cisplatin 0 μM): 11.470 µg/mL
IC50 of SEQ ID NO: 1 (T24 cell line; Cisplatin 1 μM): 11.460 µg/mL
IC50 of SEQ ID NO: 1 (T24 cell line; Cisplatin 10 μM): 2.375 µg/mL
IC50 of SEQ ID NO: 1 (T24 cell line; Cisplatin 25 μM): 1.062 µg/mL
IC50 of SEQ ID NO: 1 (T24 cell line; Cisplatin 50 μM): 1.081 µg/mL
IC50 of SEQ ID NO: 1 (T24 cell line; Cisplatin 100 μM): 0.944 µg/mL
IC50 of SEQ ID NO: 1 (T24 cell line; Cisplatin 500 μM): 0.716 µg/mL
IC50 of SEQ ID NO: 1 (T24 cell line; Gemcitabine 0 μM): 10.350 µg/mL
IC50 of SEQ ID NO: 1 (T24 cell line; Gemcitabine 1 μM): 2.242 µg/mL
IC50 of SEQ ID NO: 1 (T24 cell line; Gemcitabine 10 μM): 0.892 µg/mL
IC50 of SEQ ID NO: 1 (T24 cell line; Gemcitabine 50 μM): 0.626 µg/mL
IC50 of SEQ ID NO: 1 (T24 cell line; Gemcitabine 100 μM): 0.155 µg/mL
IC50 of SEQ ID NO: 1 (T24 cell line; Gemcitabine 200 μM): 0.149 µg/mL
IC50 of SEQ ID NO: 1 (T24 cell line; Gemcitabine 300 μM): 0.029 µg/mL
Conc. of SEQ ID NO: 1 showing synergistic effect (T24 cell line; [2]): 5 to 80 µg/mL
Conc. of SEQ ID NO: 1 showing synergistic effect (T24 cell line; in combination with Gemcitabine, paired with Gemcitabine conc. of the same table row): 2.5 to 80 µg/mL
IC50 of SEQ ID NO: 1 (PA-1 cell line; Cisplatin 0 μM): 12.070 µg/mL
IC50 of SEQ ID NO: 1 (PA-1 cell line; Cisplatin 0.01 μM): 8.520 µg/mL
IC50 of SEQ ID NO: 1 (PA-1 cell line; Cisplatin 0.1 μM): 6.033 µg/mL
IC50 of SEQ ID NO: 1 (PA-1 cell line; Cisplatin 0.5 μM): 0.912 µg/mL
IC50 of SEQ ID NO: 1 (PA-1 cell line; Cisplatin 1 μM): 0.321 µg/mL
IC50 of SEQ ID NO: 1 (PA-1 cell line; Cisplatin 5 μM): 0.0036 µg/mL
IC50 of SEQ ID NO: 1 (PA-1 cell line; Cisplatin […]): 4.455 µg/mL
IC50 of SEQ ID NO: 1 (PA-1 cell line; Paclitaxel 0 nM): 8.822 µg/mL
IC50 of SEQ ID NO: 1 (PA-1 cell line; Paclitaxel 0.01 nM): 5.794 µg/mL
IC50 of SEQ ID NO: 1 (PA-1 cell line; Paclitaxel 0.1 nM): 6.545 µg/mL
IC50 of SEQ ID NO: 1 (PA-1 cell line; Paclitaxel 0.5 nM): 3.917 µg/mL
IC50 of SEQ ID NO: 1 (PA-1 cell line; Paclitaxel 1 nM): 3.031 µg/mL
IC50 of SEQ ID NO: 1 (PA-1 cell line; Paclitaxel 5 nM): 0.709 µg/mL
IC50 of SEQ ID NO: 1 (PA-1 cell line; Paclitaxel […]): 4.893 µg/mL
Conc. of SEQ ID NO: 1 showing synergistic effect (PA-1 cell line; [1]): 1 to 20 µg/mL
IC50 of SEQ ID NO: 1 (PANC-1 cell line; 5-FU 0 μM): 24.630 µg/mL
IC50 of SEQ ID NO: 1 (PANC-1 cell line; 5-FU 0.1 μM): 686.900 µg/mL
IC50 of SEQ ID NO: 1 (PANC-1 cell line; 5-FU 1 μM): 22.490 µg/mL
IC50 of SEQ ID NO: 1 (PANC-1 cell line; 5-FU 10 μM): 6.842 µg/mL
IC50 of SEQ ID NO: 1 (PANC-1 cell line; 5-FU 50 μM): 1.690 µg/mL
IC50 of SEQ ID NO: 1 (PANC-1 cell line; 5-FU 100 μM): 1.070 µg/mL
IC50 of SEQ ID NO: 1 (PANC-1 cell line; 5-FU […] μM): 0.098 µg/mL
IC50 of SEQ ID NO: 1 (PANC-1 cell line; Gemcitabine 0 μM): 25.060 µg/mL
IC50 of SEQ ID NO: 1 (PANC-1 cell line; Gemcitabine 0.01 μM): 55.490 µg/mL
IC50 of SEQ ID NO: 1 (PANC-1 cell line; Gemcitabine 0.1 μM): 19.450 µg/mL
IC50 of SEQ ID NO: 1 (PANC-1 cell line; Gemcitabine 1 μM): 14.130 µg/mL
IC50 of SEQ ID NO: 1 (PANC-1 cell line; Gemcitabine 5 μM): 12.230 µg/mL
IC50 of SEQ ID NO: 1 (PANC-1 cell line; Gemcitabine 25 μM): 2.044 µg/mL
IC50 of SEQ ID NO: 1 (PANC-1 cell line; Gemcitabine 50 μM): 0.917 µg/mL
Conc. of SEQ ID NO: 1 showing synergistic effect (PANC-1 cell line; [3]): 5 µg/mL and 10 to 80 µg/mL
IC50 of SEQ ID NO: 1 (KB cell line; 5-FU 0 μM): 17.3800 µg/mL
IC50 of SEQ ID NO: 1 (KB cell line; 5-FU 0.01 μM): 0.5800 µg/mL
IC50 of SEQ ID NO: 1 (KB cell line; 5-FU 0.1 μM): 0.9080 µg/mL
IC50 of SEQ ID NO: 1 (KB cell line; 5-FU 0.5 μM): 0.1141 µg/mL
IC50 of SEQ ID NO: 1 (KB cell line; 5-FU 1 μM): 0.0555 µg/mL
IC50 of SEQ ID NO: 1 (KB cell line; 5-FU 5 μM): 0.0871 µg/mL
IC50 of SEQ ID NO: 1 (KB cell line; 5-FU […]): 0.5010 µg/mL
IC50 of SEQ ID NO: 1 (KB cell line; Cisplatin 0 μM): 38.110 µg/mL
IC50 of SEQ ID NO: 1 (KB cell line; Cisplatin 0.1 μM): 21.190 µg/mL
IC50 of SEQ ID NO: 1 (KB cell line; Cisplatin 0.5 μM): 2.694 µg/mL
IC50 of SEQ ID NO: 1 (KB cell line; Cisplatin 0.75 μM): 0.597 µg/mL
IC50 of SEQ ID NO: 1 (KB cell line; Cisplatin 1.0 μM): 0.316 µg/mL
IC50 of SEQ ID NO: 1 (KB cell line; Cisplatin 1.5 μM): 0.303 µg/mL
IC50 of SEQ ID NO: 1 (KB cell line; Cisplatin […]): 11.240 µg/mL
Conc. of SEQ ID NO: 1 showing synergistic effect (KB cell line; [3]): 5 to 90 µg/mL
Conc. of SEQ ID NO: 1 showing synergistic effect (KB cell line; [2]): 10 to 90 µg/mL and 5 µg/mL

Reference: patent publication US20220257704A1, “COMBINATION OF CHEMOTHERAPY WITH RECOMBINANT S. ROLFSII LECTIN” (Unichem Laboratories Ltd, priority 2018, published 2022)
